The target in the assay is PA63 heptamer (63 kD form of anthrax toxin protective antigen) (Bacillus anthracis, UniProt P13423). The assay is described as follows: NMR titration. The conditions noted are these: both partners purified.
Chain of PA63 heptamer (63 kD form of anthrax toxin protective antigen) (P13423 197-764): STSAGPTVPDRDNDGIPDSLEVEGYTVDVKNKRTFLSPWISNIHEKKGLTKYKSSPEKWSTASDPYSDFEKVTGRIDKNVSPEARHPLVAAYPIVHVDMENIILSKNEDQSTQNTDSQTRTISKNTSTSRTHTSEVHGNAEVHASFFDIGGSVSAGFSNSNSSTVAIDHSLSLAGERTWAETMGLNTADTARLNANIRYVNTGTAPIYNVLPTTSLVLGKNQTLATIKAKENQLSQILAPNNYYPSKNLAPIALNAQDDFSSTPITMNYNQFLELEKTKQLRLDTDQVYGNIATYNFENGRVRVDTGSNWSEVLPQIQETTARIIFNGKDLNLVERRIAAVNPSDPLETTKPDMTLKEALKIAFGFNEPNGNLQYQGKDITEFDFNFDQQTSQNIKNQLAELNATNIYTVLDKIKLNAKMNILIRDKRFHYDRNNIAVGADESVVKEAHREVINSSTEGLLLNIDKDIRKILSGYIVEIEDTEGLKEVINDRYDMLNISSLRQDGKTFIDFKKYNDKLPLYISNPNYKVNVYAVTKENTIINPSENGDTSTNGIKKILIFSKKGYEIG

B1: ANTXR2 VWA-domain (anthrax toxin receptor type 2, extracellular von Willebrand factor type A domain) (domain or fragment)
chain: SCRRAFDLYFVLDKSGSVANNWIEIYNFVQQLAERFVSPEMRLSFIVFSSQATIILPLTGDRGKISKGLEDLKRVSPVGETYIHEGLKLANEQIQKAGGLKTSSIIIALTDGKLDGLVPSYAEKEAKISRSLGASVYCVGVLDFEQAQLERIADSKEQVFPVKGGFQALKGIINSILAQSC
notes: also called capillary morphogenesis protein 2; CMG2
As to B1, the binding result was “binds”.

The values are drawn from paper PMC3234216 (PLoS Pathogens, 2011).
